We go through five molecules from patent US20170355774A1 (Regeneron, published 2017).

As a reminder, the EC50 is the midpoint of the concentration-response curve. High values mean lower potency in that assay, low ones higher potency in that assay. For orientation: Kd means the equilibrium constant for the complex coming apart. Higher therefore signals lower affinity. The koff is the rate constant with which the complex falls apart. Read a low koff as a long-lived complex. As a reminder, the kon is a measure of how fast the partners come together. Broadly, the t½ is how long it takes for the measured level to halve.

The target of assay [1] is T1, human GITR (amino acids M1-V241, NCBI Accession #NP_004186.1) expressed on cells (human, UniProt Q9Y5U5 26-241).
T1 construct: also called hGITR; hGITR/HEK293-D9
T1 sequence: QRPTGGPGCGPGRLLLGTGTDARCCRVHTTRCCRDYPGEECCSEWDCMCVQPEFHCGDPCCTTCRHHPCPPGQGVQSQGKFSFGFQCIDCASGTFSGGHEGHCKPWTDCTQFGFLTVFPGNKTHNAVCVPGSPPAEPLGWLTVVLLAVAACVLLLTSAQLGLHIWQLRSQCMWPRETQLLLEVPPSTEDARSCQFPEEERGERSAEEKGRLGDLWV
The assay is described as follows: ECL cell binding, hGITR/HEK293-D9. As for the experimental part: Nonspecific binding sites were blocked with 2% BSA (w/v)+PBS for 1 h at room temperature (RT). Next, serial dilutions of anti-GITR antibodies, ranging from 1.7 pM to 100 nM, were added to cells for 1 h at RT. Plates were then washed to remove unbound antibodies (AquaMax2000 plate washer, MSD Analytical Technologies) and plate-bound antibodies were detected with a SULFO-TAG™ conjugated anti-human kappa light chain IgG antibody (Jackson Immunoresearch) for 1 h at RT.
Following washes, luminescent signals were recorded with a SECTOR Imager 6000 (MSD) instrument. Direct binding signals (relative light units, RLU) were analyzed as a function of the antibody concentration and data were fitted with a sigmoidal (four-parameter logistic) dose-response model using GraphPad Prism™ software. […] The signal detected with 100 nM antibody binding to the hGITR expressing cells versus parental cells was recorded as an indication of intensity and specificity of GITR binding.

Assay [2] addresses T1, human GITR (amino acids M1-V241, NCBI …). The assay is described as follows: cell-based or functional assay.
The target of assay [3] is T2, mfGITR.mmh (Macaca fasicularis).
T2 construct: soluble monomeric construct; also called Macaca fasicularis (mf) GITR.mmh; cynomolgus GITR protein
T2 chain: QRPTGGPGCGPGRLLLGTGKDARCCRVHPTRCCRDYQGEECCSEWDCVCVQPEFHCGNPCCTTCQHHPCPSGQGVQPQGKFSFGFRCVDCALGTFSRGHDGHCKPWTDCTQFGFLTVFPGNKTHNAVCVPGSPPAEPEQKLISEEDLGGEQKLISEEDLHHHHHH
Put plainly: SPR 37C, mAb capture. As for the experimental part: (§1) (Table 3). […] GITR proteins were injected over the sensor surface at a flow rate of 30 μL/minute. All Biacore binding studies were performed in a buffer composed of 0.01M HEPES pH 7.4, 0.15M NaCl, 3 mM EDTA, 0.05% v/v Surfactant P20 (HBS-ET running buffer). Antibody-reagent association was monitored for 4 minutes while dissociation in HBS-ET running buffer (10 mM HEPES, 150 mM NaCl, 3 mM EDTA, 0.05% (v/v) Surfactant P20, pH 7.4) was monitored for 10 minutes. Kinetic association (kₐ) and dissociation (kd) rate constants were determined by fitting the real-time sensorgrams to a 1:1 binding model using Scrubber 2.0c curve fitting software. Binding dissociation equilibrium constants (KD) and dissociative half-lives (t ½) were calculated from the kinetic rate constants as: KD [M]=kd/kₐ; and t_{1/2}(min)=(ln 2/(60*kd). Results are summarized in Table 3.

The target of assay [4] is T3, hGITR.mFc (human).
T3 construct: soluble dimeric construct with mouse Fc; also called dimeric human GITR
T3 chain: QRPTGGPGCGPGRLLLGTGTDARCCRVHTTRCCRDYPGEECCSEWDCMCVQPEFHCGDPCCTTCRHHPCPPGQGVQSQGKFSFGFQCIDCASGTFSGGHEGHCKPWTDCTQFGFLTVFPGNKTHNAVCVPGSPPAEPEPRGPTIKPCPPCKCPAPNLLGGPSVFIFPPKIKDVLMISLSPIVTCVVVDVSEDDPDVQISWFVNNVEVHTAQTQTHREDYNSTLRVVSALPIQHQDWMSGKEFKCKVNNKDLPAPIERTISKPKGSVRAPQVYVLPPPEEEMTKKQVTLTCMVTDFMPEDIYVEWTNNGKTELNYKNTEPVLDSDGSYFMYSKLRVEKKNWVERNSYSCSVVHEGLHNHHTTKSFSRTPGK
Put plainly: SPR 37C, mAb capture. As for the experimental part: as §1

Assay [5] deals with T4, hGITR.mmh (human).
T4 construct: soluble monomeric construct; also called human (h) GITR.mmh; monomeric human GITR
T4 chain: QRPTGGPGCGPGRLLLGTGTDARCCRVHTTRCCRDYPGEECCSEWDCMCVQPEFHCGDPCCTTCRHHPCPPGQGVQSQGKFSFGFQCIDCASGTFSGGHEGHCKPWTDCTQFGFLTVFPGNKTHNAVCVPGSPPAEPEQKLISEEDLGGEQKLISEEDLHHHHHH
The assay is described as follows: SPR 37C, mAb capture. As for the experimental part: as §1

The target in assay [6] is T1, human GITR (amino acids M1-V241, NCBI …). Put plainly: cell-based or functional assay. This is another data set of the same source.
Assay [7] has the same target. The assay is described as follows: cell-based or functional assay. The source holds these as a separate data set.

B1: H1H14520P (antibody, human IgG1, V domains shown)
VH: QVQLVESGGGVVQPGRSLRLSCAASGFTFSSFGMHWVRQAPGKGLEWVAVISYDGRNRYYADSVKGRFTISRDNSKNTLYLQMNSLSAEDTAMFYCAKDGFGNSFDYWGQGTLVTVSS
VL: DVVMTQSPLSLPVTLGQPASISCRSSQSLLYSDGNTYLTWFQQRPGQSPRRLIYKVSNRDSGVPDRFSGSGSGTDFTLTISRVEAEDVGIYYCMQGTHWPWTFGQGTKVEIK
notes: human IgG1 (H1H)
On to B1, for which, in assay [1], the “Average Signal (RLU) at 100 nM” value came to 6450 RLU and the EC50 worked out at 0.24 nM. In assay [2], the “% Activation, NF-kB-Luc, non-anchored” value came to 10%; the “% Blocking, NF-kB-Luc, non-anchored” value came to 80%; the “EC50, hGITR activation, NF-kB-Luc, non-anchored” value (from here on “EC50 … non-anchored”) was determined as 1.1 nM; the “IC50, blocking of hGITRL stimulation, NF-kB-Luc, non-anchored” value (from here on “IC50, blocking … non-anchored”) came to 0.9 nM. Moreover, in assay [3], the Kd turned out to be 85.9 nM, the koff stood at 0.0171 s⁻¹, the kon worked out at 199000 M⁻¹ s⁻¹ and the t½ was determined as 0.7 min. In assay [4], this molecule gave a Kd of 0.537 nM, a koff of 0.000583 s⁻¹, a kon of 1.09e+06 M⁻¹ s⁻¹ and a t½ of 19.8 min. In assay [5], binding was put at a Kd of 63 nM, the koff was 0.0167 s⁻¹, the kon turned out to be 266000 M⁻¹ s⁻¹ and the t½ amounted to 0.7 min.

B2: H4H14476P (antibody, human IgG4, V domains shown)
VH: QVQLVESGGGVVQPGRSLRLSCAASGFTFSNYGIHWVRQPPGQGLEWVAVIWYAGSNKFYADSVKGRFTISRDNSKNSAYLQMNSLRAEDTAVYYCARAPLGYYYYGMDVWGQGTTVTVSS
VL: DIQMTQSPSSLSASVGDRVTITCRASQGIRNDLGWYQQKPGKAPKRLIYDASSLESGVPSRFSGSGSGTEFTLTISSLQPEDFATYYCLQHNSYPWTFGQGTKVEIK
notes: human IgG4 (H4H)
On to B2, for which, in assay [1], the “Average Signal (RLU) at 100 nM” value was found to be 8120 RLU and the EC50 came to 0.57 nM. For the same molecule, in assay [6], the “fold activation, T-cell proliferation, 22 nM, non-anchored, donor 1” value was found to be 0.7 fold; the “fold activation, T-cell proliferation, 22 nM, non-anchored, donor 2” value is 0.9 fold; the “fold activation, T-cell proliferation, 22 nM, non-anchored, donor 3” value worked out at 0.9 fold; the “fold activation, T-cell proliferation, 22 nM, non-anchored, donor 4” value stood at 0.8 fold. In addition, in assay [6], the “fold activation, T-cell proliferation, 22 nM, non-anchored, mean” value came to 0.8 fold. In assay [7], the “fold activation, T-cell proliferation, 33 nM, FcgR anchored, donor 1” value was found to be 0.6 fold; the “fold activation, T-cell proliferation, 33 nM, FcgR anchored, donor 2” value came out at 0.2 fold; the “fold activation, T-cell proliferation, 33 nM, FcgR anchored, donor 3” value stood at 0.8 fold; the “fold activation, T-cell proliferation, 33 nM, FcgR anchored, donor 4” value is 0.8 fold. In assay [7], the “fold activation, T-cell proliferation, 33 nM, FcgR anchored, donor 5” value came out at 0.1 fold and the “fold activation, T-cell proliferation, 33 nM, FcgR anchored, mean” value stood at 0.5 fold. Moreover, in assay [2], the “% Activation, NF-kB-Luc, non-anchored” value came to 10%; the “% Blocking, NF-kB-Luc, non-anchored” value was 90%; the “EC50 … non-anchored” value came to 1 nM; the “IC50, blocking … non-anchored” value worked out at 2.6 nM. In assay [3], this molecule yielded a Kd of 55.8 nM, a koff of 0.0107 s⁻¹, a kon of 191000 M⁻¹ s⁻¹ and a t½ of 1.1 min. Also, in assay [4], binding was put at a Kd of 0.297 nM, the koff amounted to 0.000269 s⁻¹, the kon turned out to be 906000 M⁻¹ s⁻¹ and the t½ was 42.9 min. Moreover, in assay [5], the Kd was determined as 31.4 nM, the koff stood at 0.0123 s⁻¹, the on-rate constant (kon) worked out at 392000 M⁻¹ s⁻¹ and the t½ came to 0.9 min.

B3: H1H14493P (antibody, human IgG1, V domains shown)
VH: QVQLVESGGGVVQPGRSLRLSCAASGFNFRSYGMHWVRQAPGKGLEWVAVIWYDGSNKYYADSVKGRFTISRDSSRDTLFLQMNSLRAGDTAVYYCARGGMLGRDYYYGMDVWGQGTTVTVSS
VL: DIQMTQSPSSLSASVGDRVTITCRASQGIRNDLGWYQQKPGKAPKRLIYAASSLQSGVPSRFSGSGSGTEFTLTISSLQPEDFATYYCLQHNSYPNTFGQGTKLEIK
notes: human IgG1 (H1H)
Regarding B3, in assay [1], the “Average Signal (RLU) at 100 nM” value was 7220 RLU and the EC50 was determined as 0.3 nM. Besides, in assay [2], the “% Activation, NF-kB-Luc, non-anchored” value is 25%; the “% Blocking, NF-kB-Luc, non-anchored” value came out at 90%; the “EC50 … non-anchored” value stood at 1.2 nM; the “IC50, blocking … non-anchored” value stood at 0.6 nM. In assay [3], this molecule showed a Kd of 1400 nM, a koff of 0.014 s⁻¹, a kon of 10000 M⁻¹ s⁻¹ and a t½ of 0.8 min. Moreover, in assay [4], binding was characterised by a dissociation constant (Kd) of 0.365 nM, the koff was 0.000191 s⁻¹, the kon was found to be 524000 M⁻¹ s⁻¹ and the t½ amounted to 60.4 min. In assay [5], binding was put at a Kd of 13.4 nM, the koff is 0.0025 s⁻¹, the kon worked out at 186000 M⁻¹ s⁻¹ and the t½ was determined as 4.6 min.

B4: H1H14486P (antibody, human IgG1, V domains shown)
VH: QVQLVESGGGVVQPGRSLRLSCAASGFTFSNYGMHWVRQAPGKGLEWVAVIWYPGSNKFYTDSVEGRFTISRDNSKNTVYLQMDSLRAEDTAVYYCARGGALGVDYYYGMDVWGQGTTVTVSS
VL: AIQMTQSPSSLSASVGDRVTLTCRASQGIRNDLGWYQQKPGKAPNFLIYSASSLQSGVPSRFSGSGSGTDFTLTISSLQPEDFATYYCLQNYNYPWTFGQGTKVEIK
notes: human IgG1 (H1H)
In the case of B4, in assay [1], the “Average Signal (RLU) at 100 nM” value stood at 5830 RLU and the EC50 worked out at 0.43 nM. Moreover, in assay [2], the “% Activation, NF-kB-Luc, non-anchored” value turned out to be 30%; the “% Blocking, NF-kB-Luc, non-anchored” value came out at 50%; the “EC50 … non-anchored” value was determined as 1.2 nM; the “IC50, blocking … non-anchored” value came to 1.1 nM. Besides, in assay [3], the affinity, expressed as Kd, was 122 nM; the koff came out at 0.0166 s⁻¹; the kon amounted to 137000 M⁻¹ s⁻¹; the t½ was 0.7 min. In assay [4], this molecule came in with a Kd of 0.159 nM, a koff of 0.000153 s⁻¹, a kon of 965000 M⁻¹ s⁻¹ and a t½ of 75.5 min. In assay [5], the Kd came out at 2.79 nM, the koff came out at 0.00123 s⁻¹, the kon amounted to 439000 M⁻¹ s⁻¹ and the t½ worked out at 9.4 min.

B5: H1H14491P (antibody, human IgG1, V domains shown)
VH: QVQLVESGGGVVQPGRSLRLSCVASGFTFSDYGMHWVRQAPGKGLEWVAVIWYEGSNKYYADSVTGRFTISRDNSKNTLFLQMNSLKAEDTAEYYCAKDGGQLAYQYYYGMDVWGQGTTVTVSS
VL: AIQMTQSPSSLSASVGDRVTLTCRASQGIRNDLGWYQQKPGKAPKSLIYAASNLQSGVPSRFSGSGSGTDFTLTISSLQPEDSATYYCLQDYNYPRTFGQGTKVEIK
notes: human IgG1 (H1H)
With B5, in assay [1], the “Average Signal (RLU) at 100 nM” value was 6840 RLU and the midpoint of the response, the EC50, lay at 0.4 nM. For the same molecule, in assay [2], the “% Activation, NF-kB-Luc, non-anchored” value was 60%; the “% Blocking, NF-kB-Luc, non-anchored” value is 90%; the “EC50 … non-anchored” value came out at 2 nM; the “IC50, blocking … non-anchored” value was 0.6 nM. In assay [3], this molecule came in with a Kd of 75.3 nM, a koff of 0.00889 s⁻¹, a kon of 118000 M⁻¹ s⁻¹ and a t½ of 1.3 min. Moreover, in assay [4], binding was put at a Kd of 0.201 nM, the koff turned out to be 0.000169 s⁻¹, the kon was found to be 842000 M⁻¹ s⁻¹ and the t½ came out at 68.3 min. Also, in assay [5], the Kd is 5.06 nM, the koff came to 0.00162 s⁻¹, the kon is 319000 M⁻¹ s⁻¹ and the t½ is 7.2 min.
